The star is where a group is joined. G0F = fucosylated biantennary N-glycan, CC(=O)N[C@@H]1[C@@H](O)[C@H](O[C@@H]2O[C@H](CO)[C@@H](O[C@@H]3O[C@H](CO[C@H]4O[C@H](CO)[C@@H](O)[C@H](O)[C@@H]4O[C@@H]4O[C@H](CO)[C@@H](O)[C@H](O)[C@H]4NC(C)=O)[C@@H](O)[C@H](O[C@H]4O[C@H](CO)[C@@H](O)[C@H](O)[C@@H]4O[C@@H]4O[C@H](CO)[C@@H](O)[C@H](O)[C@H]4NC(C)=O)[C@@H]3O)[C@H](O)[C@H]2NC(C)=O)[C@@H](CO[C@@H]2O[C@@H](C)[C@@H](O)[C@@H](O)[C@@H]2O)O[C@H]1*
B1: AFP(243-261)[Ac-243; Asn(G0F)251]amid (peptide)
peptide: Ac-LSQKFTKVN(G0F)FTEIQKLVLD-NH2
notes: also called BMO 35.000315
B2: AFP(248-256)Ac-248]amid (peptide)
peptide: Ac-TKVNFTEIQ-NH2
notes: also called BMO 35.000373
B3: mAb<AFP-L3>rRb-19B12-IgG (antibody, V domains shown)
VH: QSVEESGGRLVAPGTPLTLTCTVSGIDLSTYGMGWVRQAPGKGLEWIGIIGDNGSTYYANWAKGRFTISKTSTTVDLKMTSLTTEDTATYFCARDRDPSSSGYYFKMWGPGTLVTVSL
VL: ALVMTQTPSSVSAAVGGTVTINCQASQSISSYLAWYQQKPGQPPKLLIFGASNLESGVPSRFKGSGSGTEFTLTISDLECDDAATYYCQTAFYIFSSDNAFGGGTEVVVK
notes: Recombinant rabbit IgG (B-cell supernatant in the Hit-ELISA, expressed in HEK293 afterwards); also called antibody 19B12; clone 19B12
B4: mAb<AFP-L3>rRb-3C5-IgG (antibody, V domains shown)
VH: QSVEESGGRLVAPGTPLTLTCTVSGIDLSTYGMGWVRQAPGKGLEYIGIIDSGSTYYANWAKGRFTISKTSTTVDLKMTSLTTEDTATYFCARDRDPSSSGYYFKMWGPGTLVTVSL
VL: ALVMTQTPSSVSAAVGGTVTINCQASQSIGSYLAWYQQKPGQPPRLLIYGASNLESGVPSRFKGSGSGTEFTLTISDLECDDAATYYCQTAFYIFSSDNAFGGGTEVVVK
notes: Recombinant rabbit IgG; also called antibody 3C5; clone 3C5

Columns and labels:
mAb<AFP-L3>rRb-19B12-IgG [1] = molecular target: B3; assay: SPR affinity in solution (Biacore, CAP chip): 10 nM antibody equilibrated with the non-biotinylated peptide at varied concentration; free antibody measured by its binding to captured AFP(243-261)-G0F-Bi; n=2
Method: (§1) The dissociation equilibrium constant K) was determined via the Affinity in Solution method (AiS).
(§2) With increasing peptide concentration as a competitor, the ‘free’ antibody in solution decreases. The determined free antibody concentrations for the competition experiment were plotted versus the peptide competitor concentration. The regeneration was performed using a Guanidinium/NaOH solution, as supplied by Cytiva. Two independent series were analyzed for each interaction. The Affinity in Solution model from Biacore Evaluation software was used to evaluate the data.

mAb<AFP-L3>rRb-3C5-IgG [2] = molecular target: B4; assay: SPR affinity in solution (Biacore, CAP chip): 10 nM antibody equilibrated with the non-biotinylated peptide at varied concentration; free antibody measured by its binding to captured AFP(243-261)-G0F-Bi; n=2 [continued), upper plot]
Method: as §1, §2

mAb<AFP-L3>rRb-19B12-IgG [3] = molecular target: B3; assay: SPR affinity in solution (Biacore, CAP chip): 10 nM antibody equilibrated with the non-biotinylated, non-glycosylated peptide at varied concentration; free antibody measured by its binding to captured AFP(243-261)-G0F-Bi; n=2 [continued), lower plot]
Method: as §1, §2

mAb<AFP-L3>rRb-3C5-IgG [4] = molecular target: B4; assay: SPR affinity in solution (Biacore, CAP chip): 10 nM antibody equilibrated with the non-biotinylated, non-glycosylated peptide at varied concentration; free antibody measured by its binding to captured AFP(243-261)-G0F-Bi; n=2 [continued]
Method: as §1, §2

[5] = molecular target: T1, AFP(243-261)[Acetyl-243; Asn(G0F)251; Bi-PEG] (human, N-terminal acetylation; G0F (fucosylated biantennary N-glycan) on Asn corresponding to Asn-251; C-terminal E(biotinyl-PEG)-NH2); assay: SPR Biacore T200, 37 C; molar ratio (binding stoichiometry)
T1 construct: Synthetic glycopeptide
T1 peptide: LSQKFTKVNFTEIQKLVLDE
Method: (§3) Detailed kinetic investigations were performed using a BIAcore™ T200 instrument from GE Healthcare at 37° C. The 5 rabbit mAb<AFP-L3>L9B12, 3C5, 3D2, 3A3 and 6B6, identified via the kinetic screening, were kinetically characterized for binding AFP-L3 peptides [0656] […] Asn(G0F)-Bi [0658]
(§4) The rabbit antibody capture system was immobilized on flow cells 1-4 as described with 700 to 800 RU. Flow cell 1 served as reference, flow cells 2, 3 and 4 were used for interaction measurements. 150 nM antibodies 1-5 were injected at 10 μL/min for 30 seconds. The Capture Levels (CL) in resonance units RU were monitored. Peptide analyte concentration series from 3.3-270 nM were injected at 60 μl/min. The association phase was monitored for 3 minutes, the dissociation phase was monitored for 10 minutes. The regeneration was performed by an injection of 10 mM Glycine pH 2.0 at 20 μL/min for 30 seconds, followed by 2 injections of 10 mM Glycine pH 2.25 for 60 seconds. The kinetic rate constants and the dissociation equilibrium constants KD were determined using a Langmuir 1:1 fitting model according to the BIAcore™ T200 Evaluation SW 3.2. Secondly, the Langmuir 1:1 fitting Scrubber-SW V2.0c was applied.

[6] = molecular target: T2, AFP(243-261)[Asn(Fuc-GlcNAc)Bi-PEG] (human, not fully specified; Fuc-GlcNAc disaccharide on Asn corresponding to Asn-251; C-terminal E(biotinyl-PEG)-NH2); assay: as above
T2 peptide: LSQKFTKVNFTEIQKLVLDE
Method: as §3, §4

AFP(248-256)Ac-248]amid [7] = molecular target: B2; assay: affinity in solution; ratio of KD against the KD for AFP(243-261)-G0F
Method: as §1, §2

[8] = molecular target: T2, AFP(243-261)[Asn(Fuc-GlcNAc)Bi-PEG]; assay: SPR; ratio of KD against the KD for AFP(243-261)-G0F-Bi
[9] = molecular target: T1, AFP(243-261)[Acetyl-243; Asn(G0F)251; …; assay: SPR; ratio of KD against the KD for AFP(243-261)-G0F-Bi (reference itself)
Method: as §1, §2

[10] = molecular target: B1; assay: SPR affinity in solution: 10 nM antibody with 120 nM-0.01 nM free peptide, free antibody read on AFP(243-261)-G0F-Bi CAP chip, n=2
Method: as §1, §2

[11] = molecular target: T3, AFP(243-261)[Ac-243; Asn(G2)251; Bi-PEG] (human, N-terminal acetylation; G2 (non-fucosylated biantennary N-glycan) on Asn corresponding to Asn-251; C-terminal E(biotinyl-PEG)-NH2); assay: SPR; ratio of KD against the KD for AFP(243-261)-G0F-Bi; SPR; ratio of KD to the KD for G0F
T3 peptide: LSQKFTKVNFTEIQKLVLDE
Method: as §3, §4

[12] = molecular target: T1, AFP(243-261)[Acetyl-243; Asn(G0F)251; …; assay: SPR Biacore T200, 37 C, antibody captured on C1 chip, peptide as analyte, Langmuir 1:1
Method: as §3, §4

[13] = molecular target: T2, AFP(243-261)[Asn(Fuc-GlcNAc)Bi-PEG]; assay: as above
Method: as §3, §4

AFP(248-256)Ac-248]amid [14] = molecular target: B2; assay: SPR affinity in solution: 10 nM antibody with 200 µM-0.1 nM free peptide, free antibody read on AFP(243-261)-G0F-Bi CAP chip, n=2
Method: as §1, §2

[15] = molecular target: T3, AFP(243-261)[Ac-243; Asn(G2)251; Bi-PEG]; assay: SPR Biacore T200, 37 C; simulation for 7.3 µM-10 nM extrapolated from measured data; SPR simulation for 7.3 µM-10 nM, extrapolated lower bound
[16] = molecular target: T1, AFP(243-261)[Acetyl-243; Asn(G0F)251; …; assay: SPR Biacore T200, 37 C, antibody captured on C1 chip, peptide as analyte, Langmuir 1:1; apparent value (complex binding behavior)
Method: as §3, §4
By visual inspection, the kinetic signature for antibody 3C5 is close to the antibody saturation for the highest shown concentration 90 nM.

[17] = molecular target: T3, AFP(243-261)[Ac-243; Asn(G2)251; Bi-PEG]; assay: SPR Biacore T200, 37 C, weak binding (cell shifted to the kd column); SPR, weak binding; KD only, no rate constants

B1
IC50 (read off the curve) (mAb<AFP-L3>rRb-19B12-IgG [1]): ~6 nM
IC50 (read off the curve) (mAb<AFP-L3>rRb-3C5-IgG [2]): ~5 nM

B2
binding result (mAb<AFP-L3>rRb-19B12-IgG [3]): binds
binding result (mAb<AFP-L3>rRb-3C5-IgG [4]): binds

B3
MR [5]: 1.4
MR [6]: 1.3
Delta KD (AFP(248-256)Ac-248]amid [7]): > 5000 fold
Delta KD [8]: > 7 fold
Delta KD [9]: 1 fold
Kd [10]: 0.9 nM
Delta KD [11]: > 245 fold
Kd [12]: 2.5 nM
koff [12]: 0.0015 s⁻¹
kon [12]: 600000 M⁻¹ s⁻¹
t/2 diss [12]: 8 min
Kd [13]: 18 nM
koff [13]: 0.0047 s⁻¹
kon [13]: 270000 M⁻¹ s⁻¹
t/2 diss [13]: 2.5 min
Kd (AFP(248-256)Ac-248]amid [14]): 5700 nM
Kd [15]: > 620 nM

B4
MR [5]: 1.6
MR [6]: 1.5
Delta KD (AFP(248-256)Ac-248]amid [7]): > 5000 fold
Delta KD [8]: > 11 fold
Delta KD [9]: 1 fold
Kd [10]: 0.4 nM
Delta KD [11]: > 180 fold
Kd [16]: 3.1 nM
koff [16]: 0.0032 s⁻¹
kon [16]: 1e+06 M⁻¹ s⁻¹
Kd [13]: 35 nM
koff [13]: 0.016 s⁻¹
kon [13]: 450000 M⁻¹ s⁻¹
t/2 diss [13]: 0.7 min
Kd (AFP(248-256)Ac-248]amid [14]): 12600 nM
Kd [17]: 560 nM

Reference: US20250155441A1 (ROCHE DIAGNOSTICS OPERATIONS, published 2025)
